Results taken from US20090149389A1 (PURDUE RESEARCH FOUNDATION, published 2009).

T1: PKG1β (h) (human (h), UniProt Q13976-2 1-686)
T1 sequence (looked up): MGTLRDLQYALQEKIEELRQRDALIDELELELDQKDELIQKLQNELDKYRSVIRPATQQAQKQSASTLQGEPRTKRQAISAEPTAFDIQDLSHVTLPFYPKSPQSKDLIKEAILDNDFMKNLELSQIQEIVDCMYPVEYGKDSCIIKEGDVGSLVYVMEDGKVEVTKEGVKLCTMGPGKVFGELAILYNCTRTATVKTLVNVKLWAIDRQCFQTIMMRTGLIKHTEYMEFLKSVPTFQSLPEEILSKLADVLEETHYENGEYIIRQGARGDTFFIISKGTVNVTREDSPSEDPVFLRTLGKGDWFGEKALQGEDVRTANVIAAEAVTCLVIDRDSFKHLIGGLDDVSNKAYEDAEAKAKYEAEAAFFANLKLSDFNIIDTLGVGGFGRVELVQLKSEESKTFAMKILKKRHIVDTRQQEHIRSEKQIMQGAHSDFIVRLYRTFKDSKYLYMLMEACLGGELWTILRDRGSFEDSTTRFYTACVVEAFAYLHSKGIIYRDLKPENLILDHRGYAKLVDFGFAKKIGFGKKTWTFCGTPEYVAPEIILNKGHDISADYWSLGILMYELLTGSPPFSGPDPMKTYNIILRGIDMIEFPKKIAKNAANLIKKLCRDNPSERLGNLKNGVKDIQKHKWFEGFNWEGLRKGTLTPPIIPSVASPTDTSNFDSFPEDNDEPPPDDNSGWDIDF

T2: Ret (h) (human (h), UniProt P07949 658-1114, limits assumed)
T2 sequence (looked up): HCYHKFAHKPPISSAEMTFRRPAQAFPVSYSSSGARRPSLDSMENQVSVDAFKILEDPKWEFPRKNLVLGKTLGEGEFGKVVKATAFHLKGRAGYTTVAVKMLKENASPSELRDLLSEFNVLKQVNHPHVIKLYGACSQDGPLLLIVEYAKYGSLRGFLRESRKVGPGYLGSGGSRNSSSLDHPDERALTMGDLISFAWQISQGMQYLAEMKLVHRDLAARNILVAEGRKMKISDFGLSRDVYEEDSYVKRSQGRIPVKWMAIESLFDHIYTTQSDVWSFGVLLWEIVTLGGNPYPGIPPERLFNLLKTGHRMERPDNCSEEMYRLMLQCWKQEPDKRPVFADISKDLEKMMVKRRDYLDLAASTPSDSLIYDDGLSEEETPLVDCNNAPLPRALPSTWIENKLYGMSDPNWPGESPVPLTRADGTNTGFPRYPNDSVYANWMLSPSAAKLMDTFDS

T3: Aurora-A (h) (human (h), UniProt O14965 1-403)
T3 sequence (looked up): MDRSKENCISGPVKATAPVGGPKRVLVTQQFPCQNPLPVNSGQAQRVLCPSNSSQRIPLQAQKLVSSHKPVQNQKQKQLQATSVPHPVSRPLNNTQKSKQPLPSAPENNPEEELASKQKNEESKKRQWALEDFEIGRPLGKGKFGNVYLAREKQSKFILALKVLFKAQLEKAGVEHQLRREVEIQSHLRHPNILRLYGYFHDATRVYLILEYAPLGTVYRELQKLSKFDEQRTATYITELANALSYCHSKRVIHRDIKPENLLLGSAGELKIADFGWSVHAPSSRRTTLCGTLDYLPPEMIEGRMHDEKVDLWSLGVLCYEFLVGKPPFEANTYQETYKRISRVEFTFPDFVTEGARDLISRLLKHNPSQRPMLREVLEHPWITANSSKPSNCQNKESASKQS

T4: IRAK4 (h) (human (h), UniProt Q9NWZ3 1-460, limits assumed)
T4 sequence (looked up): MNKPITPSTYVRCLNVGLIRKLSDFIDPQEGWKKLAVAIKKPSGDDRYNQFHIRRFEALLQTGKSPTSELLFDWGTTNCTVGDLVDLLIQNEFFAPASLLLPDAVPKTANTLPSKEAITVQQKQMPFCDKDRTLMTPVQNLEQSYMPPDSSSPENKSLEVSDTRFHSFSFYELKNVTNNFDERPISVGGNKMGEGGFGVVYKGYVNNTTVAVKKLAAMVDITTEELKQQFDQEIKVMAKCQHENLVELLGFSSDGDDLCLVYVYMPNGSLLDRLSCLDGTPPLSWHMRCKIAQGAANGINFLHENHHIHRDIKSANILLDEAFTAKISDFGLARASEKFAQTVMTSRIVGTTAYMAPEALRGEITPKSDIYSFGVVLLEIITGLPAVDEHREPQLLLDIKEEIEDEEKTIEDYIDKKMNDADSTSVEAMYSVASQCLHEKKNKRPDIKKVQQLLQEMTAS


Assays:
Test in all cases: cell-based or functional assay
[1] = target: T1, PKG1β (h)
[2] = target: PKCδ (h) (human (h), UniProt Q05655 1-676)
[3] = target: KDR (tl) (UniProt P35968 790-1356, limits assumed)
[4] = target: FGFR1 (h) (human (h), UniProt P11362 456-765, limits assumed)
[5] = target: PKB β (h) (human (h), UniProt P31751 1-481, limits assumed)
[6] = target: T2, Ret (h)
[7] = target: CK2 (h) (human (h), UniProt P68400 1-391)
[8] = target: CKIB (h) (human (h))
[9] = target: GSK3β (h) (human (h), UniProt P49841 1-420)
[10] = target: Abl (h) (human (h), UniProt P00519 27-1130, limits assumed)
[11] = target: T3, Aurora-A (h)
[12] = target: ROCK-1 (h) (human (h), UniProt Q13464 17-535, limits assumed)
[13] = target: T4, IRAK4 (h)
[14] = target: EGFR (h) (human (h), UniProt P00533 696-1210, limits assumed)

Sequence of GSK3β (h) (P49841 whole entry): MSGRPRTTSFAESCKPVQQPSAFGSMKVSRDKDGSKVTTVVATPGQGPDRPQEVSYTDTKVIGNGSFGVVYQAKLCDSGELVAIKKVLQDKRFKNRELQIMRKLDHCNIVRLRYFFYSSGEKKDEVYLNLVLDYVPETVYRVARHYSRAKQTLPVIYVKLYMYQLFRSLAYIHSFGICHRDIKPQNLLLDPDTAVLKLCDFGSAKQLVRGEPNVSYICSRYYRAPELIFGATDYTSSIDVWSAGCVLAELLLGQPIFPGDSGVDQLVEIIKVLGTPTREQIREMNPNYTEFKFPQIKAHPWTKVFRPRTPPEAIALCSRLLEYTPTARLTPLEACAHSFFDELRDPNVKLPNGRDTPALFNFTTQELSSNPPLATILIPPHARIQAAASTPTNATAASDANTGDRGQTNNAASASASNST
Sequence of CK2 (h) (P68400 whole entry): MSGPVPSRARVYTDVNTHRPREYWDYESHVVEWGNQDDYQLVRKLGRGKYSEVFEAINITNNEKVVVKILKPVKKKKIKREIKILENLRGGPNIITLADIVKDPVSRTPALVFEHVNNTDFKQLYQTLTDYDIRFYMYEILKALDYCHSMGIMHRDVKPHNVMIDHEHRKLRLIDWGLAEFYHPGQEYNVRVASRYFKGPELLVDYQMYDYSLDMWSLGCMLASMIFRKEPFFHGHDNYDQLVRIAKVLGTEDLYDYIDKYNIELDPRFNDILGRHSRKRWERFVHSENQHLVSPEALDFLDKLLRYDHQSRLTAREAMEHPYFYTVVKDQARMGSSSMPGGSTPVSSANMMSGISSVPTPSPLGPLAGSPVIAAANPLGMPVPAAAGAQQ
Sequence of PKCδ (h) (Q05655 whole entry, stated change not applied): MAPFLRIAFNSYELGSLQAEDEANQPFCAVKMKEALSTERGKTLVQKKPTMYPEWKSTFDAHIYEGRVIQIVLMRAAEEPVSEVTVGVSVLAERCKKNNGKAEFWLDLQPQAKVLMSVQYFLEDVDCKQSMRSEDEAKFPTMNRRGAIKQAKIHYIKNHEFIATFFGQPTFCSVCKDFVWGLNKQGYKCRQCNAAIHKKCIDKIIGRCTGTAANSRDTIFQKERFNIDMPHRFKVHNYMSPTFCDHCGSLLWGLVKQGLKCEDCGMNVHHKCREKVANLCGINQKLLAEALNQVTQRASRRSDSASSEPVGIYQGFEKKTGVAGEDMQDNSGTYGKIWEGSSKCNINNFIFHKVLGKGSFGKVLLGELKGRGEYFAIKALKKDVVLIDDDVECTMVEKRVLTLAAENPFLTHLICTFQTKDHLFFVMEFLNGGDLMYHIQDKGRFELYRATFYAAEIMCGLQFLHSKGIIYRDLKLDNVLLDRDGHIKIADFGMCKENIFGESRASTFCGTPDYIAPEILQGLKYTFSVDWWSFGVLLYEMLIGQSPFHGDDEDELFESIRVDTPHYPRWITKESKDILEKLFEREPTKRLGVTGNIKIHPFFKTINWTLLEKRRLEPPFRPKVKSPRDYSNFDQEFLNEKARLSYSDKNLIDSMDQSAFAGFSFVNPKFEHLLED
Sequence of KDR (tl) (P35968 790-1356 limits assumed): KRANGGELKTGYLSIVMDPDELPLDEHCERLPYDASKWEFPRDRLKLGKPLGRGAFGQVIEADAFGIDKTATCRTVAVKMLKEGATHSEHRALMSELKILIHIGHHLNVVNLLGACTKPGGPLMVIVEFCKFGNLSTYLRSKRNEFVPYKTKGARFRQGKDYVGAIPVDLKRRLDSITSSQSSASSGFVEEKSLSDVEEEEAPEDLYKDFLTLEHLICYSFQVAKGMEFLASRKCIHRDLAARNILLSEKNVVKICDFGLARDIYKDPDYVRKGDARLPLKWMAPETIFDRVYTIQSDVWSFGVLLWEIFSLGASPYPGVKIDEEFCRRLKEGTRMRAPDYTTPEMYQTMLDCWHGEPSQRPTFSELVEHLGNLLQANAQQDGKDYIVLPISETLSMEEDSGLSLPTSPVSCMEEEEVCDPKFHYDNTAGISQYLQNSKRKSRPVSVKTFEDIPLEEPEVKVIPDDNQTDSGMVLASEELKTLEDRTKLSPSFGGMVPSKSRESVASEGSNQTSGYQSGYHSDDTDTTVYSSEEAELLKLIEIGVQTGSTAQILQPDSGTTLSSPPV
Sequence of Abl (h) (P00519 27-1130 limits assumed): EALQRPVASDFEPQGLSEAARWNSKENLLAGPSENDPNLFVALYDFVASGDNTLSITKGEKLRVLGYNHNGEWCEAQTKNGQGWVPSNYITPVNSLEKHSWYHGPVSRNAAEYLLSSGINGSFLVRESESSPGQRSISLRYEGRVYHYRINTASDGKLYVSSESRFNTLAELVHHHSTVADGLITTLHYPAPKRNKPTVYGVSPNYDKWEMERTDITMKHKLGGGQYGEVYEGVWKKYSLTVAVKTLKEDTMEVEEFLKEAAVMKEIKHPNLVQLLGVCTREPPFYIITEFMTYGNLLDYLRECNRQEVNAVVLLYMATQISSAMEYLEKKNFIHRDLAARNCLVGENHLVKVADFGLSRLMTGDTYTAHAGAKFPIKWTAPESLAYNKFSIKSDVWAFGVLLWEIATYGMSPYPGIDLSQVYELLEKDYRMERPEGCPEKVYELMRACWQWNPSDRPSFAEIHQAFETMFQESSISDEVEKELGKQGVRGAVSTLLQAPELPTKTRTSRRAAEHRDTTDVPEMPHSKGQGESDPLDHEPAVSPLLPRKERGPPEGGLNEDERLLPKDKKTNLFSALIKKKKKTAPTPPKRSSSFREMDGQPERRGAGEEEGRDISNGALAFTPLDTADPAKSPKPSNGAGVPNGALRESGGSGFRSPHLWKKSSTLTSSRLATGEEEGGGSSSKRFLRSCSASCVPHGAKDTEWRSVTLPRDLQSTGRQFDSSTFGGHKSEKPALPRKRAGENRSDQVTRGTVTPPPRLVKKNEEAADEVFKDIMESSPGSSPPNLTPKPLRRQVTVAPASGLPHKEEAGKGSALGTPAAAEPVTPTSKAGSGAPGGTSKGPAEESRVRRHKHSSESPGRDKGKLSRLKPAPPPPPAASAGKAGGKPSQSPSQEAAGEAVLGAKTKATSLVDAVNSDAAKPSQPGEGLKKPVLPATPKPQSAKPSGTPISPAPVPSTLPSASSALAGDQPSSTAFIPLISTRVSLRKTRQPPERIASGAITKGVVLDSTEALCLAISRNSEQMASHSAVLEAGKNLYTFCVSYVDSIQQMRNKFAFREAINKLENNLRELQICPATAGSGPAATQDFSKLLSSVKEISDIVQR
Sequence of PKB β (h) (P31751 whole entry): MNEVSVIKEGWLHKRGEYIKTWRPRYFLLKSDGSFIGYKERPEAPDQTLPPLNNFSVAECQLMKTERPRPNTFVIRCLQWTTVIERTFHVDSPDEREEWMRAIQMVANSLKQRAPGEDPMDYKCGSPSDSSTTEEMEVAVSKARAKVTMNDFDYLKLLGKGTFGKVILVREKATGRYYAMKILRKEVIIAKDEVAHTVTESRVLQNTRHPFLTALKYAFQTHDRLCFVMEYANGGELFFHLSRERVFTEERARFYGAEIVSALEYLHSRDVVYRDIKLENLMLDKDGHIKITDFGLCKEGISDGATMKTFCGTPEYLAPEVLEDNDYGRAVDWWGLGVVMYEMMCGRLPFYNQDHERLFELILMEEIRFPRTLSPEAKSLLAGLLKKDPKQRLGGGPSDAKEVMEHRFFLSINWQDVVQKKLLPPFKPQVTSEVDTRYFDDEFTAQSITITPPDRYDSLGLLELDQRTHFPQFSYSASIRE
Sequence of FGFR1 (h) (P11362 456-765 limits assumed): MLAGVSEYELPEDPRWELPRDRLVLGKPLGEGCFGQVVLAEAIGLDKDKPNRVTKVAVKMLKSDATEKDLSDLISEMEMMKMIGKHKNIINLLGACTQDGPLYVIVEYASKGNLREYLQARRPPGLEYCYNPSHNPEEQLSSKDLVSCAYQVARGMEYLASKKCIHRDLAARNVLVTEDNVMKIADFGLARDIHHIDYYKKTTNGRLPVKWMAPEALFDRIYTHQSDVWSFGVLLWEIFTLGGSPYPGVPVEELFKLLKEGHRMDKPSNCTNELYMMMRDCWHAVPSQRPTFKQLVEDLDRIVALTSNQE
Sequence of ROCK-1 (h) (Q13464 17-535 limits assumed): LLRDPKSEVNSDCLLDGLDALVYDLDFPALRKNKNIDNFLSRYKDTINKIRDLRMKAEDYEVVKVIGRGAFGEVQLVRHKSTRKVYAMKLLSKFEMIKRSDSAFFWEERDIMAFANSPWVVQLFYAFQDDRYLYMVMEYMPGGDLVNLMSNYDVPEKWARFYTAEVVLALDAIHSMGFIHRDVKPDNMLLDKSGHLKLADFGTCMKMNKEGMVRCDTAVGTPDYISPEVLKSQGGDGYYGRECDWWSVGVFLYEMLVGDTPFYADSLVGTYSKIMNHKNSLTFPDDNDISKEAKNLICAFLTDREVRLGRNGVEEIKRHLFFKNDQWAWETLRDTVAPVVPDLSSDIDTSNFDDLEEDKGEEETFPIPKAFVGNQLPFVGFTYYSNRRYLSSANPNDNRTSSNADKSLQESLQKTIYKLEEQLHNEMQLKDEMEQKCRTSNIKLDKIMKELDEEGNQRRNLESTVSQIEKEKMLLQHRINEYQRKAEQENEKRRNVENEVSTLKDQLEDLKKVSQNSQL

Binder	Profile-1 @ = 100 µm (kinase profiler assay) [1]	Profile-1 @ = 100 µm (kinase profiler assay) [2]	Profile-1 @ = 100 µm (kinase profiler assay) [3]	Profile-1 @ = 100 µm (kinase profiler assay) [4]	Profile-1 @ = 100 µm (kinase profiler assay) [5]	Profile-1 @ = 100 µm (kinase profiler assay) [6]	Profile-1 @ = 100 µm (kinase profiler assay) [7]	Profile-1 @ = 100 µm (kinase profiler assay) [8]	Profile-1 @ = 100 µm (kinase profiler assay) [9]	Profile-1 @ = 100 µm (kinase profiler assay) [10]	Profile-1 @ = 30 µm (kinase profiler assay) [11]	Profile-1 @ = 30 µm (kinase profiler assay) [12]	Profile-1 @ = 30 µm (kinase profiler assay) [13]	Profile-1 @ = 30 µm (kinase profiler assay) [14]
KAFAKLAARLYRKALARQLGVAA	24	24	56	35	28	117	79	97	184	55	–	–	–	–
WLRRIKAWLRRIKALNRQLGVAA	–	–	–	–	–	–	–	–	–	–	46	0	12	10
